Source: patent US10829756B2, “Discovery of enzymes from the alpha-keto acid decarboxylase family” (priority 2015, dated 2020)

How the values were obtained:
Assay in all cases: Steady-state kinetics of 2-ketoacid decarboxylase (ADH/NADH coupled)
Details in all cases: other: pH 7.5, 21° C.
[1] = substrate: CC(=O)C(=O)O; type: biochemical
Source text: (§1) FIG. 17: Depicts protein sequences of various 2-ketoacid decarboxylases (SEQ ID NOS:20-34). Protein Sequence 3FZN is SEQ ID NO: 20. Protein sequence 2VBI is SEQ ID NO: 21. Protein sequence 1ZPD is SEQ ID NO: 22. Protein sequence ZP_08570611 is SEQ ID NO: 23. Protein sequence YP_831380 is SEQ ID NO: 24. Protein sequence ZP_06547677 is SEQ ID NO: 25. Protein sequence 1OVM_P23234 is SEQ ID NO: 26. Protein sequence ZP_06418208 is SEQ ID NO: 27. Protein sequence ZP_07290467 is SEQ ID NO: 28. Protein sequence 2VBG is SEQ ID NO: 29. Protein sequence CAK95977 is SEQ ID NO: 30. Protein sequence ZP_07282849 is SEQ ID NO: 31. Protein sequence ZP_06846103 is SEQ ID NO: 32. Protein sequence ZP_04996569 is SEQ ID NO: 33. Protein sequence YP_381143 is SEQ ID NO: 34.
(§2) To evaluate if the integrative genomic mining approach enriches the mining for C8 activity, an additional set of previously characterized ketoacid decarboxylases diverse in sequence were experimentally characterized in an equivalent manner. […] The median C8 activity from the GEOs selected using the integrative genomic mining approach is 75-fold higher than the naively picked decarboxylases (Table 1, FIG. 4). This indicates the integrative genomic mining approach is effective in identifying functional enzymes that perform the desired reaction on C8.
(§3) For the native KIVD and KIVD_VLV mutant, 2 ml overnight cultures of XL1B cells were transformed with pQE9 containing N-terminal his-tagged KIVD enzymes and grown in Terrific Broth (BP biomedical, Cat#3046-042) with 50 μg/mL of carbenicillin. (Fisher scientific, Cat# BP2648-5) For the GEOs, 2 ml overnight cultures of BLR cells were transformed with pet29b+ plasmid containing N-terminal his-tagged GEOs, and grown in Terrific Broth with 50 μg/mL of kanamycin. (Fisher scientific, Cat# BP906-5) These cultures were diluted 1:1000 in 500 mL of Terrific Broth with 1 mM MgSO4, 1% glucose, and 50ug/mL of corresponding antibiotics, then grown at 37° C. for 24 hours. Cultures were pelleted down at 4700 rpm for 10 mins and resuspended in auto-induction media (LB broth, 1 mM MgSO4, 0.1 mM TPP, 1×NPS, and 1×5052) for induction at 18° C. for 34 hours. At the end of induction, cells were centrifuged (4700 rpm, 4° C., 20 minutes), supernatant was removed, and cells were resuspended in 40 mL lysis buffer (100 mM Hepes pH 7.5, 100 mM NaCl, 10% glycerol, 0.1 mM TPP, 1 mM MgSO4, 10 mM Imidazole, 1 mM TCEP) and 1 mM PMSF) and sonicated for 2 minutes. Lysed cells were centrifuged at 4700 rpm at 4° C. for 60 mins to remove cell debris. Supernatant was loaded on gravity flow column with 700 μl of cobalt slurry (Fisher scientific, CAT# PI-90091) washed with 10 ml of wash buffer (100 mM Hepes pH 7.5, 100 mM NaCl, 10% glycerol, 0.1 mM TPP, 1 mM MgSO4, 10 mM Imidazole, and 1 mM TCEP). Cobalt bead bed was washed with 15 ml of wash buffer 5 times and proteins were eluted with 1000 μl of elution buffer (100 mM Hepes pH 7.5, 100 mM NaCl, 10% glycerol, 0.1 mM TPP, 1 mM MgSO4, 200 mM Imidazole, and 1 mM TCEP). Protein samples were immediately buffer exchanged with spin concentrators (Satorius, CAT# VS0112) into storage buffer (100 mM Hepes pH 7.5, 100 mM NaCl, 10% glycerol, 0.1 mM TPP, 1 mM MgSO4, and 1 mM TCEP) and stored at 4° C. until kinetics characterization. Protein concentrations were determined using a Synergy H1 spectrophotometer (Biotek) by measuring absorbance at 280 nm using their calculated extinction coefficients with ExPASy ProtParam Tool.^33 All other buffers and salts were purchased from Fisher Scientific unless otherwise specified.
(§4) The kcat and KM values of selective KIVD mutants were measured for the substrates: C3, C5, isoC5, and C8. All substrates were dissolved in MilliQ H2O and pH was adjusted to 7.5 as necessary. Activity was measured at 0.005 mM to 10 mM substrates. The assay was performed in a 96-well half-area plate. […]

[2] = substrate: CCCC(=O)C(=O)O; type: biochemical
Source text: as §1, §2, §3, §4

[3] = substrate: CCCCCCC(=O)C(=O)O; type: biochemical
Source text: as §1, §2, §3, §4

[4] = substrate: CC(C)C(=O)C(=O)O; type: biochemical, Lactococcus lactis
Protocol: as §3
(§5) The kcat and KM values of selective KIVD mutants were measured for the substrates: C3, C5, isoC5, and C8. All substrates were dissolved in MilliQ H2O and pH was adjusted to 7.5 as necessary. Activity was measured at 0.005 mM to 10 mM substrates. The assay was performed in a 96-well half-area plate. Each reaction contains a final concentration of 0.5 mM NADH, 1 mM DTT, 0.1 mM TPP, 1 mM MgSO4, reaction buffer (100 mM Hepes, 100 mM NaCl, 10% glycerol, pH 7.5) and ADH (Sigma Aldrich, A7011, 10 U/ml for C3, C5 and C8 reactions, 500 U/ml for isoC5 reactions). A wide range of ketoacid decarboxylase concentrations, 4.5 nM-15 μM, were used according to the activity of each enzyme toward different substrates in order to perform steady state kinetics measurement over a period of an hour. Absorbance readings were taken every 1-minute at OD340 at 21° C. for 60 minutes using the Synergy H1. Kinetic parameters (kcat and KM) were determined by fitting initial velocity versus substrate concentration data to the Michaelis-Menten equation.

[5] = substrate: CCCC(=O)C(=O)O; type: biochemical, Lactococcus lactis
Protocol: as §3, §5

[6] = substrate: CCCCCCC(=O)C(=O)O; type: biochemical, Lactococcus lactis
Protocol: as §3, §5

[7] = substrate: CC(C)C(=O)C(=O)O; type: biochemical
Source text: as §2
For the native KIVD and KIVD_VLV mutant, 2 ml overnight cultures of XL1B cells were transformed with pQE9 containing N-terminal his-tagged KIVD enzymes and grown in Terrific Broth (BP biomedical, Cat#3046-042) with 50 μg/mL of carbenicillin. […] Protein concentrations were determined using a Synergy H1 spectrophotometer (Biotek) by measuring absorbance at 280 nm using their calculated extinction coefficients with ExPASy ProtParam Tool.^33 All other buffers and salts were purchased from Fisher Scientific unless otherwise specified.
The kcat and KM values of selective KIVD mutants were measured for the substrates: C3, C5, isoC5, and C8. […] Activity was measured at 0.005 mM to 10 mM substrates. […] Absorbance readings were taken every 1-minute at OD340 at 21° C. for 60 minutes using the Synergy H1. […]

[8] = substrate: CC(C)C(=O)C(=O)O; type: biochemical; remark: listed apart in the source
Source text: as §1, §2, §3, §4

B1: 1ZPD, ketoacid decarboxylase, SEQ ID NO: 22 (Zymomonas mobilis subsp. mobilis ZM4 = ATCC 31821) (protein)
chain: MSYTVGTYLAERLVQIGLKHHFAVAGDYNLVLLDNLLLNKNMEQVYCCNELNCGFSAEGYARAKGAAAAVVTYSVGALSAFDAIGGAYAENLPVILISGAPNNNDHAAGHVLHHALGKTDYHYQLEMAKNITAAAEAIYTPEEAPAKIDHVIKTALREKKPVYLEIACNIASMPCAAPGPASALFNDEASDEASLNAAVDETLKFIANRDKVAVLVGSKLRAAGAEEAAVKFTDALGGAVATMAAAKSFFPEENALYIGTSWGEVSYPGVEKTMKEADAVIALAPVFNDYSTTGWTDIPDPKKLVLAEPRSVVVNGIRFPSVHLKDYLTRLAQKVSKKTGSLDFFKSLNAGELKKAAPADPSAPLVNAEIARQVEALLTPNTTVIAETGDSWFNAQRMKLPNGARVEYEMQWGHIGWSVPAAFGYAVGAPERRNILMVGDGSFQLTAQEVAQMVRLKLPVIIFLINNYGYTIEVMIHDGPYNNIKNWDYAGLMEVFNGNGGYDSGAAKGLKAKTGGELAEAIKVALANTDGPTLIECFIGREDCTEELVKWGKRVAAANSRKPVNKVVGSTENLYFQSGALE
B1 showed a Km [1] of 5.7 ± 0.3 mM, a kcat [1] of 46.7 ± 1.4 s⁻¹ and a kcat/Km [1] of 8200 ± 545 M⁻¹ s⁻¹. The Km [2] was 7.1 ± 0.3 mM, the kcat [2] was 0.95 ± 0.02 s⁻¹ and the kcat/Km [2] was 140 ± 5.6 M⁻¹ s⁻¹. The Km [3] was 1.2 ± 0.1 mM, the kcat [3] was 0.021 ± 0.001 s⁻¹ and the kcat/Km [3] was 19 ± 2 M⁻¹ s⁻¹.

B2: Native KIVD (ketoisovalerate decarboxylase), wild type, SEQ ID NO:1 (Lactococcus lactis subsp. lactis) (protein)
chain: MYTVGDYLLDRLHELGIEEIFGVPGDYNLQFLDQIISRKDMKWVGNANELNASYMADGYARTKKAAAFLTTFGVGELSAVNGLAGSYAENLPVVEIVGSPTSKVQNEGKFVHHTLADGDFKHFMKMHEPVTAARTLLTAENATVEIDRVLSALLKERKPVYINLPVDVAAAKAEKPSLPLKKENSTSNTSDQEILNKIQESLKNAKKPIVITGHEIISFGLEKTVSQFISKTKLPITTLNFGKSSVDEALPSFLGIYNGKLSEPNLKEFVESADFILMLGVKLTDSSTGAFTHHLNENKMISLNIDEGKIFNESIQNFDFESLISSLLDLSEIEYKGKYIDKKQEDFVPSNALLSQDRLWQAVENLTQSNETIVAEQGTSFFGASSIFLKPKSHFIGQPLWGSIGYTFPAALGSQIADKESRHLLFIGDGSLQLTVQELGLAIREKINPICFIINNDGYTVEREIHGPNQSYNDIPMWNYSKLPESFGATEERVVSKIVRTENEFVSVMKEAQADPNRMYWIELILAKEDAPKVLKKMGKLFAEQNKS
B2 was tested, and the Km [4] was 4.5 ± 0.3 mM, the kcat [4] was 61 ± 2.1 s⁻¹ and the Km [5] was 1.5 ± 0.1 mM. For the same protein, the kcat [5] was 14.3 ± 0.2 s⁻¹, the Km [6] was 0.21 ± 0.04 mM and the kcat [6] was 7 ± 0.3 s⁻¹.

B3: 1OZF, ketoacid decarboxylase (Klebsiella pneumoniae) (protein)
chain: MDKQYPVRQWAHGADLVVSQLEAQGVRQVFGIPGAKIDKVFDSLLDSSIRIIPVRHEANAAFMAAAVGRITGKAGVALVTSGPGCSNLITGMATANSEGDPVVALGGAVKRADKAKQVHQSMDTVAMFSPVTKYAIEVTAPDALAEVVSNAFRAAEQGRPGSAFVSLPQDVVDGPVSGKVLPASGAPQMGAAPDDAIDQVAKLIAQAKNPIFLLGLMASQPENSKALRRLLETSHIPVTSTYQAAGAVNQDNFSRFAGRVGLFNNQAGDRLLQLADLVICIGYSPVEYEPAMWNSGNATLVHIDVLPAYEERNYTPDVELVGDIAGTLNKLAQNIDHRLVLSPQAAEILRDRQHQRELLDRRGAQLNQFALHPLRIVRAMQDIVNSDVTLTVDMGSFHIWIARYLYTFRARQVMISNGQQTMGVALPWAIGAWLVNPERKVVSVSGDGGFLQSSMELETAVRLKANVLHLIWVDNGYNMVAIQEEKKYQRLSGVEFGPMDFKAYAESFGAKGFAVESAEALEPTLRAAMDVDGPAVVAIPVDYRDNPLLMGQLHLSQIL
Work on B3 yielded a Km [7] of 1.8 ± 0.1 mM and a kcat [7] of 0.03 ± 0.001 s⁻¹.

B4: 3FZN, ketoacid decarboxylase, SEQ ID NO: 20 (Pseudomonas putida) (protein)
chain: MASVHGTTYELLRRQGIDTVFGNPGSNELPFLKDFPEDFRYILALQEACVVGIADGYAQASRKPAFINLHSAAGTGNAMGALSNAWNSHSPLIVTAGQQTRAMIGVEALLTNVDAANLPRPLVKWSYEPASAAEVPHAMSRAIHMASMAPQGPVYLSVPYDDWDKDADPQSHHLFDRHVSSSVRLNDQDLDILVKALNSASNPAIVLGPDVDAANANADCVMLAERLKAPVWVAPSAPRCPFPTRHPCFRGLMPAGIAAISQLLEGHDVVLVIGAPVFRYHQYDPGQYLKPGTRLISVTCDPLEAARAPMGDAIVADIGAMASALANLVEESSRQLPTAAPEPAKVDQDAGRLHPETVFDTLNDMAPENAIYLNESTSTTAQMWQRLNMRNPGSYYFCAAGGLGFALPAAIGVQLAEPERQVIAVIGDGSANYSISALWTAAQYNIPTIFVIMNNGTYGALRWFAGVLEAENVPGLDVPGIDFRALAKGYGVQALKADNLEQLKGSLQEALSAKGPVLIEVSTVSPVKGSTENLYFQSGALE
B4 was tested, and the Km [8] was 4.9 ± 0.3 mM, the kcat [8] was 0.52 ± 0.02 s⁻¹ and the Km [2] was 2.7 ± 0.2 mM. The kcat [2] was 4.7 ± 0.1 s⁻¹, the Km [3] was 3.8 ± 0.3 mM and the kcat [3] was 1.3 ± 0.1 s⁻¹.
